# Results as given in publication PMC6901440, “Bcl-2 regulates pyroptosis and necroptosis by targeting BH3-like domains in GSDMD and MLKL” (Cell Death Discovery, 2019).
# B1: gasdermin D (endogenous, THP-1 cells) (natural protein, human (endogenous in THP-1), UniProt P57764 1-484, looked up)
# chain: MGSAFERVVRRVVQELDHGGEFIPVTSLQSSTGFQPYCLVVRKPSSSWFWKPRYKCVNLSIKDILEPDAAEPDVQRGRSFHFYDAMDGQIQGSVELAAPGQAKIAGGAAVSDSSSTSMNVYSLSVDPNTWQTLLHERHLRQPEHKVLQQLRSRGDNVYVVTEVLQTQKEVEVTRTHKREGSGRFSLPGATCLQGEGQGHLSQKKTVTIPSGSTLAFRVAQLVIDSDLDVLLFPDKKQRTFQPPATGHKRSTSEGAWPQLPSGLSMMRCLHNFLTDGVPAEGAFTEDFQGLRAEVETISKELELLDRELCQLLLEGLEGVLRDQLALRALEEALEQGQSLGPVEPLDGPAGAVLECLVLSSGMLVPELAIPVVYLLGALTMLSETQHKLLAEALESQTLLGPLELVGSLLEQSAPWQERSTMSLPPGLLGNSWGEGAPAWVLLDECGLELGEDTPHVCWEPQAQGRMCALYASLALLSGLSQEPH
# notes: gasdermin D (GSDMD), endogenous in the human macrophage cell line THP-1; also called GSDMD; source: endogenous, THP-1 lysate
# Molecular target: T1, Bcl-2 (endogenous, THP-1 cells) (human (endogenous in THP-1), UniProt P10415 1-239)
# T1 construct: Bcl-2 (B-cell lymphoma 2), endogenous in the human macrophage cell line THP-1; immunoprecipitated with anti-Bcl-2 antibody; also called B-cell lymphoma 2; source: endogenous, THP-1 lysate
# Assay: co-IP; endogenous proteins; Bcl-2 immunoprecipitated from THP-1 lysates; cells basal or LPS 50 ng/ml 5 h + nigericin 5 uM 30 min (Fig. 1b); PMA treated cells with or without TNFa 20 ng/ml, 100 nM Smac mimetic, 20 uM z-VAD-FMK for 3 h (Fig. 5d); lysis buffer 20 mM HEPES pH 7.4, 0.5% Triton X-100, 0.5% CHAPS, 10% glycerol; washed eight times
# Conditions: partners not purified
# T1 sequence (P10415 whole entry): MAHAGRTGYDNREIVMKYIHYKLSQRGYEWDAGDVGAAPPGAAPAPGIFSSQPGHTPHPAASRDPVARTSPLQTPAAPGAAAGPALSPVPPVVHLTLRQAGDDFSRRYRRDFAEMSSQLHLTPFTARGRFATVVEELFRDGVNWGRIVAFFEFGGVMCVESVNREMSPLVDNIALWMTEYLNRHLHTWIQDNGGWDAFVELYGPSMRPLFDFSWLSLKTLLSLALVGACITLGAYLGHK
binder,measurement,value
B1,fold change of GSDMD associated with Bcl-2 after LPS and nigericin against basal conditions,2.4 fold
